Measured values as given in the MegaScale stability set (Tsuboyama et al. 2023).

B1: EHEE_rd4_0086 (parent)
chain: EIHIRTNGEEQARKVYKMLAKRNYDVKIEQHNGQWVVTAS

Variants of: B1
Experiment: folding stability dG (cDNA display proteolysis); higher = more stable
Settings: PBS, room temperature

Folding stability dG [kcal/mol]: each site, then its substitutions
K17: Y 1.99; L 2.08; N 2.07; E 2.37; C 3.19; D 2.06; G 1.33; A 2.25; V 1.91
Q34: Y 2.55; W 2.31; I 2.27; D 1.51; M 2.09
S40: Q 1.57; P 1.16; Y 1.96; R 2.25; F 2.04; W 2.2; N 1.65
H3: T 2.41; M 2.23; K 2.26; Q 2.06; G 0.661; S 2; D 0.614; F 2.2; Y 2.36; V 2.85; R 2.4
V26: L 0.829; M 0.338; R -0.177; W 0.204; F -0.182; A 1.1
I2: D 0.01; N 0.024; G -0.001; F 2.2; L 1.61; V 1.42; E 0.258; A 0.327
N7: S 1.95; L 1.81; A 1.95; K 1.77; Q 1.85; T 1.99; R 2.06
Y16: E 0.776; H 1.03; S 1.5; M 2.15; Q 1.38; I 0.973; L 1.55
R22: S 1.37; E 1.29; M 2.32; N 1.45; H 1.86; P -0.563; L 2.45; Q 1.76; V 1.01
Y24: R 1.3; G 0.656; S 0.914; E 0.458; D 0.514; H 1.18; F 1.93; W 2; N 0.737; Q 0.902; T 0.886; K 1.25
E29: G 1.48; A 1.8; D 1.26; Q 1.82; N 1.57; M 1.93; T 2.02; Y 2.48; S 1.99; F 2.44; I 1.97
E9: R 1.77; I 2.26; Y 2.52; M 1.75; D 0.638; L 2.44; K 1.69; N 0.702; T 0.873; G 0.745; A 1.53
T38: M 1.67; K 1.71; V 2.25; W 1.72; R 1.78; G 0.134; S 1.51; Q 0.832
R5: W 2.43; S 1.45; G 0.692; A 1.53; D 0.471; M 1.98; N 1.18; H 1.96; L 2.08; Y 2.52
V36: R 1.07; T 1.39; N 0.466; W 2.3; K 0.658; L 1.78; Y 2.13; G 0.463
M18: L 1.82; Y 2.37; A 1.84; Q 1.5; W 2.61; F 2.25
A39: I 2.85; G 1.44; R 0.961; D 0.179; N 0.642; K 0.724; H 1.11; V 2.51; Q 0.463; W 2.2
N32: R 1.3; K 1.54; G 1.86; H 1.55; Y 1.38; T 0.816; P 0.291; S 1.38; I 0.67; E 1.76; L 1.51
K14: H 1.53; Q 1.8; I 1.82; V 1.42; D 1.21
Q30: P 0.717; R 1.81; E 1.85; C 2.32; H 1.93; D 1.07; G 0.999; M 1.81; Y 2.3; N 2.01; A 1.33
K27: Y 1.45; E 0.722; H 1.66; T 1.68; D 0.311; I 1.45; F 1.33; R 1.95
E10: W 2.06; Q 1.81; F 1.73; M 1.89; K 2.15; L 1.98; A 2.22; I 1.84; T 1.78; Y 1.81; R 2.17; P 1.37
H31: E 1.85; I 2.43; Y 2.03; N 1.72; K 2.04; M 2.03; D 1.78; G 0.849; Q 1.95; T 1.71; S 1.78; L 2.12
T6: D -0.07; R 0.963; Y 1.89; G 0.494; A 1.73; H 0.847; I 2.02; K 0.706; S 1.16; N 0.438; P 0.496; M 1.91; Q 0.309
Q11: N 1.35; S 1.55; V 1.61; H 1.96; L 1.89
L19: M 1.27; F 1.72; Y 1.35
D25: P 1.08; Y 2.09; V 2.31; S 1.99; R 2.25; Q 2.23; H 2.15; I 2.34; W 1.89; M 2.21; T 2.25; A 1.96
R13: Y 1.85; V 1.27; E 1.04; C 2.74; W 2.33; S 0.759; L 1.89; D 0.502; H 1.32; M 1.79; K 1.92
G33: W 0.42; N 1.24; A 0.852; Y 0.642; Q 0.937; V 0.374
W35: F 1.01; L -0.221
A20: E 1.52; N 0.982; R 2.14; I 2.17; Q 2.16; Y 1.55; G 0.826; L 2.51; K 2.43
I28: F 0.516; M 1.69; W 0.131
E1: T 2.31; N 1.8; H 2.46; R 2.29; L 2.37; F 2.51; A 2.08; S 2.08; Q 2.17; I 2.48
K21: R 1.95; M 2.15; C 2.71; I 1.82; Y 1.61; S 2.09; A 2.4; P -0.238; W 1.61
N23: G 3.46; A 1.69; I 0.912; V 0.904; K 1.68; M 1.89; Q 1.67; Y 2.86; E 1.12; C 2.9; W 2.36; L 1.74
I4: Y 2.12; W 1.65; V 1.46; D -0.257; N -0.203; P -0.436; E -0.06; H 0.442; S -0.073; R 0.105; L 1.12
A12: M 0.486; T 0.108; S 0.335; W 0.477; I 0.115; K -0.265; Y -0.25
G8: L 2.05; Q 1.94; I 2.21; E 2.06; T 2.86; Y 2.22
V37: L 0.844; W -0.025; F -0.019; M 0.044
V15: K 0.551; D -0.861; N -0.279; F 1.93; H 0.525; S -0.033; R 0.424
